Our source for the Km values is article PMC10184913.

Substrate in the series: O=C(O)/C=C/c1ccccc1
Kind of series: cells, lysate or membranes. The note with it: 1 mM NADPH, 50 mM phosphate pH 7.6, 25°C, co-expressed LjCPR1.

B1: GmC4H14 (Glycine max) (protein)
chain: MDLLLLEKTLIGLFLAAVVAIAVSTLRGRKFKLPPGPLPVPIFGNWLQVGDDLNHRNLTDLAKKFGDIFLLRMGQRNLVVVSSPELAKEVLHTQGVEFGSRTRNVVFDIFTGKGQDMVFTVYGEHWRKMRRIMTVPFFTNKVVQQYRHGWESEAAAVVEDVKNNPDAAVSGTVIRRRLQLMMYNNMYRIMFDRRFESEEDPIFQRLRALNGERSRLAQSFEYNYGDFIPILRPFLKGYLKICKEVKETRLKLFKDYFVDERKKLGSIKSSNNNELKCAIDHILDAQRKGEINEDNVLYIVENINVAAIETTLWSIEWGIAELVNHPEIQQKVRDEIDRVLEAGHQVTEPDIQKLPYLQAVVKETLRLRMAIPLLVPHMNLHDAKLGGYDIPAESKILVNAWWLANNPAHWKKPEEFRPERFLEEELHVEANGNDFRYLPFGVGRRSCPGIILALPILAITLGRLVQNFELLPPPGQSQIDTSEKGGQFSLHILKHSTIVAKPRSF
A word on the Km: it is the concentration of substrate that gives half-maximal velocity. With B1, the Michaelis constant (Km) was 2.74 ± 0.18 µM.

B2: GmC4H2 (Glycine max) (protein)
chain: MDLLLLEKTLIGLFLAAVVAIAVSTLRGRKFKLPPGPLPVPIFGNWLQVGDDLNHRNLTDLAKKFGDIFLLRMGQRNLVVVSSPELAKEVLHTQGVEFGSRTRNVVFDIFTGKGQDMVFTVYGEHWRKMRRIMTVPFFTNKVVQQYRHGWESEAAAVVEDVKKNPDAAVSGTVIRRRLQLMMYNNMYRIMFDRRFESEEDPIFQRLRALNGERSRLAQSFEYNYGDFIPILRPFLKGYLKICKEVKETRLKLFKDYFVDERKKLGSTKSTNNNNELKCAIDHILDAQRKGEINEDNVLYIVENINVAAIETTLWSIEWGIAELVNHPEIQQKLRDEIDRVLGAGHQVTEPDIQKLPYLQAVVKETLRLRMAIPLLVPHMNLHDAKLGGYDIPAESKILVNAWWLANNPAHWKKPEEFRPERFFEEESLVEANGNDFRYLPFGVGRRSCPGIILALPILGITLGRLVQNFELLPPPGQSQIDTSEKGGQFSLHILKHSTIVAKPRSF
With B2, the Km is 6.438 ± 0.74 µM.

B3: GmC4H20 (Glycine max) (protein)
chain: MGLQIKEPLLFTLVTISLISITKLLHSYFSIPFSPSNLSIAIATLIFVLISYKFSSSSIKHSSTTLPPGPLSVPIFGNWLQVGNDLNHRLLASMSQTYGPVFLLKLGSKNLVVVSDPELATQVLHAQGVEFGSRPRNVVFDIFTGNGQDMVFTVYGDHWRKMRRIMTLPFFTNKVVHNYSNMWEEEMDLVVRDLNVNERVRSEGIVIRRRLQLMLYNIMYRMMFDAKFESQEDPLFIQATRFNSERSRLAQSFEYNYGDFIPLLRPFLRGYLNKCKDLQSRRLAFFNTHYVEKRRQIMAANGEKHKISCAMDHIIDAQMKGEISEENVIYIVENINVAAIETTLWSIEWAVAELVNHPTVQSKIRDEISKVLKGEPVTESNLHELPYLQATVKETLRLHTPIPLLVPHMNLEEAKLGGHTVPKESKVVVNAWWLANNPSWWKNPEEFRPERFLEEECATDAVAGGKVDFRFVPFGVGRRSCPGIILALPILGLVIAKLVKSFQMSAPAGTKIDVSEKGGQFSLHIANHSTVLFHPIKTL
B3: the Km amounted to 3.83 ± 0.44 µM.
